Details: Pseudomonas aeruginosa (strain ATCC 15692 / DSM 22644 / CIP 104116 / JCM 14847 / LMG 12228 / 1C / PRS 101 / PAO1); pH 7; 10 °C; Urea; Fluorescence; sodium phosphate 50 mM; reversible: yes; whole UniProt chain shown

B1: Cytochrome c-551 wild type, P00099 (protein)
chain: MKPYALLSLLATGTLLAQGAWAEDPEVLFKNKGCVACHAIDTKMVGPAYKDVAAKFAGQAGAEAELAQRIKNGSQGVWGPIPMPPNAVSDDEAQTLAKWVLSQK
With B1 the denaturant m value was 1.1 kcal/mol/M, the “denaturant midpoint (higher = more stable)” value was 6.4 M and the unfolding free energy was 7.1 kcal/mol.

Source: FireProtDB (doi:10.1006/jmbi.2001.4728)
